From patent US11007356B2, “Ingestible device for delivery of therapeutic agent to the gastrointestinal tract” (Progenity, Inc., priority 2018, dated 2021)

B1: pegfilgrastim (protein, UniProt P09919 31-207, looked up)
Granulocyte …: TPLGPASSLPQSFLLKCLEQVRKIQGDGAALQEKLVSECATYKLCHPEELVLLGHSLGIPWAPLSSCPSQALQLAGCLSQLHSGLFLYQGLLQALEGISPELGPTLDTLQLDVADFATTIWQQMEELGMAPALQPTQGAMPAFASAFQRRAGGVLVASHLQSFLEVSYRVLRHLAQP
modifications: N-terminal Met; PEG
B2: emicizumab (antibody, chains of the INN, looked up, V domains shown)
VH: QVQLVQSGSELKKPGASVKVSCKASGYTFTDNNMDWVRQAPGQGLEWMGDINTRSGGSIYNEEFQDRVIMTVDKSTDTAYMELSSLRSEDTATYHCARRKSYGYYLDEWGEGTLVTVSS
VL: DIQMTQSPSSLSASVGDRVTITCKASRNIERQLAWYQQKPGQAPELLIYQASRKESGVPDRFSGSRYGTDFTLTISSLQPEDIATYYCQQYSDPPLTFGGGTKVEIK
VH2: QVQLVESGGGLVQPGGSLRLSCAASGFTFSYYDIQWVRQAPGKGLEWVSSISPSGQSTYYRREVKGRFTISRDNSKNTLYLQMNSLRAEDTAVYYCARRTGREYGGGWYFDYWGQGTLVTVSS
VL2: B2 VL
B3: concizumab (antibody, chains of the INN, looked up, V domains shown)
VH: EVQLVESGGGLVKPGGSLRLSCAASGFTFSNYAMSWVRQTPEKRLEWVATISRSGSYSYFPDSVQGRFTISRDNAKNSLYLQMNSLRAEDTAVYYCARLGGYDEGDAMDSWGQGTTVTVSS
VL: DIVMTQTPLSLSVTPGQPASISCKSSQSLLESDGKTYLNWYLQKPGQSPQLLIYLVSILDSGVPDRFSGSGSGTDFTLKISRVEAEDVGVYYCLQATHFPQTFGGGTKVEIK
B4: evolocumab (antibody, chains of the INN, looked up, V domains shown)
VH: EVQLVQSGAEVKKPGASVKVSCKASGYTLTSYGISWVRQAPGQGLEWMGWVSFYNGNTNYAQKLQGRGTMTTDPSTSTAYMELRSLRSDDTAVYYCARGYGMDVWGQGTTVTVSS
VL: ESALTQPASVSGSPGQSITISCTGTSSDVGGYNSVSWYQQHPGKAPKLMIYEVSNRPSGVSNRFSGSKSGNTASLTISGLQAEDEADYYCNSYTSTSMVFGGGTKLTVL

Key:
[1] = Dosing regimen model: required bioavailability for ingestible device (Tables 16, 17); details: for Eff Dose: approved dose x bioavailability of the approved route (Table 16)
[2] = in vivo, sc; cited from earlier work

Molecule	Eff Dose [1]	Bio Avail (Approved Dosing Info) [2]	Eff. Dose ([1]; baseline dose x bioavailability, SC (Table 17), assumed weight 70 kg)	Bioavail. (Baseline dose) [2]
B1	4.2 mg	70%		
B2	89.3 mg	85%		
B3			16.3 mg	93.0%
B4	114.8 mg	82%		
